Results from paper PMC4203850, “Conformational Antibody Binding to a Native, Cell-Free Expressed GPCR in Block Copolymer Membranes” (PLoS ONE, 2014).

Molecular target: T1, radiolabeled (I-125) SDF-1α (stromal cell-derived factor-1 alpha) (UniProt P48061-2 22-89, 125I radiolabel (position not given))
T1 construct: SDF-1α (stromal cell-derived factor-1 alpha), the natural ligand of CXCR4; the alpha isoform
Experiment: radioligand binding; saturation assay: constant CXCR4-ACM concentration, varying 125I-SDF, with and without 0.5 µM unlabeled SDF; 96-well plate, filtration; GraphPad Prism
Conditions: both partners purified

T1 sequence (P48061 22-89): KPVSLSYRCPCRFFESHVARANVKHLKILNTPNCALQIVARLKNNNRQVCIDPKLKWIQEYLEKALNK

B1: CXCR4 embedded in polymersome membranes (CXCR4-ACMs) (receptor, UniProt P61073 1-352, looked up)
chain: MEGISIYTSDNYTEEMGSGDYDSMKEPCFREENANFNKIFLPTIYSIIFLTGIVGNGLVILVMGYQKKLRSMTDKYRLHLSVADLLFVITLPFWAVDAVANWYFGNFLCKAVHVIYTVNLYSSVLILAFISLDRYLAIVHATNSQRPRKLLAEKVVYVGVWIPALLLTIPDFIFANVSEADDRYICDRFYPNDLWVVVFQFQHIMVGLILPGIVILSCYCIIISKLSHSKGHQKRKALKTTVILILAFFACWLPYYIGISIDSFILLEIIKQGCEFENTVHKWISITEALAFFHCCLNPILYAFLGAKFKTSAQHALTSVSRGSSLKILSKGKRGGHSSVSTESESSSFHSS
notes: Receptor sits in polybutadiene-b-poly(ethylene oxide) polymersome membrane with 1% DSPE-PEG-biotin; The introduction speaks in general of 'native, full-length membrane proteins' for this approach; also called C4-ACMs; native CXCR4
- Kd: 8.4 nM
